In this data set the test system is CTCF. In words: EMSA. (In general: A gel shift assay detects complexes by their altered migration in electrophoresis.)

The substance 230 bp probe rs150502618-A registered a binding signal (% increase in binding vs G allele (N3)) of 8.

Regarding 50 bp probe rs150502618-A, the binding signal (% increase in binding vs G allele (N1)) was determined as 15.
